# Patent US20230167482A1, “FUNCTIONAL CYTOCHROME P450 IN VITRO ASSAY” (PharmGenetix GmbH, priority 2019, published 2023)
# System: CYP2D6
# Test: Functional CYP2D6 in vitro assay: HEK-Blue cells transiently transfected with a CYP2D6 variant, P450-Glo luminescence with Luciferin-ME EGE, normalized to secreted NanoLuc
# Format: cell-based, human
# Details: one-way ANOVA followed by Dunnett post hoc test, categories: loss, decrease, normal, increase of function
# Procedure: Therefore the CYP2D6 coding sequence (CDS) of interest is cloned into pcDNA3.1-HISC vector, and variants of interest are produced via site-directed mutagenesis (FIG. 1; step 1).
# pcDNA3.1-HISC (A) and pNL1.3CMV[secNluc/CMV] (B) vectors are co-transfected in HEK-Blue™ cells (FIG. 1; step 2). 48 hours after transfection, secreted NanoLuc is detected and measured by luminescence using a multi-plate reader (FIG. 1; step 3). Following NanoLuc detection, old media is replaced with Luciferin ME-EGE containing media (FIG. 1; step 4). After 3 hours incubation at 37° C., cells are lysed and luciferin production (proportional to CYP2D6 activity) is measured using a multi-plate reader (FIG. 1; step 5).
# CYP2D6 cDNA was obtained from total liver RNA (Ambion®, Life Technology, Wien, Austria), following Reverse-Transcription-PCR (RT-PCR) using the Quantitect® Reverse Transcription kit (Qiagen, Hilden, Germany) following manufacturer instructions. The CYP2D6 coding sequence (CDS) was then amplified using the following oligonucleotide primers: 5′-[…]-3′ (forward primer) and 5′-[…]-3′ (reverse primer). The CYP2D6 CDS was then cloned into the pcDNA3.1-HISC eukaryotic protein expression vector under the control of the CMV immediate enhancer and promoter, using the NheI and KpnI restriction digestion enzymes (Thermo Scientific, Waltham, Mass., USA). […] All the other tested CYP2D6 variants were similarly created. After production, vectors and cloned inserts were verified with Sanger sequencing against the wild-type reference sequence (SEQ ID No: 2).
# Cell culture and transfection Human Embryonic Kidney (HEK)-Blue (HEK-Blue™ IL-4/IL-13 cells, Invivogen, Toulouse, France) cells, an engineered cell line derived from HEK-293 cells, were cultured in a humidified incubator at 37° C. with 5% CO2 with Dulbecco's Modified Eagles Medium (DMEM) supplemented with 4.5 g/L glucose, 10% (v/v) Fetal Bovine Serum (FBS), 1.5% NaHCO3, 50 U/mL penicillin, 50 μg/mL streptomycin, 10 μg/mL Blasticidin and 100 μg/mL Zeocin™ (Invivogen, Toulouse, France). Media was replaced three times weekly. […]
# Forty-eight hours following transfection, a 20 μL aliquot of the supernatant was transferred from each well into a new white 96-well Nunclon™ A Surface plate for the detection of the secreted NanoLuc® levels using the Nano-Glo® Luciferase assay (Promega, Mannheim, Germany). […] Following three minutes incubation at room temperature (RT), luminescence was measured using the Spark® 10M multimode multiplate reader (Tecan, Grodig, Austria), keeping an optical density filter of 1 (OD1) and 1 second of integration time. Luminescence levels directly correspond to the amount of secreted NanoLuc®, which is used for normalization of transfection efficiency. […]
molecule,measurement,value
"*9: human CYP2D6 variant allele *9 (PV00434), SEQ ID NO: 5 (protein, UniProt P10635 1-497, looked up, variant K281*) Cytochrome P450 2D6: MGLEALVPLAVIVAIFLLLVDLMHRRQRWAARYPPGPLPLPGLGNLLHVDFQNTPYCFDQLRRRFGDVFSLQLAWTPVVVLNGLAAVREALVTHGEDTADRPPVPITQILGFGPRSQGVFLARYGPAWREQRRFSVSTLRNLGLGKKSLEQWVTEEAACLCAAFANHSGRPFRPNGLLDKAVSNVIASLTCGRRFEYDDPRFLRLLDLAQEGLKEESGFLREVLNAVPVLLHIPALAGKVLRFQKAFLTQLDELLTEHRMTWDPAQPPRDLTEAFLAEMEAKGNPESSFNDENLRIVVADLFSAGMVTTSTTLAWGLLLMILHPDVQRRVQQEIDDVIGQVRRPEMGDQAHMPYTTAVIHEVQRFGDIVPLGVTHMTSRDIEVQGFRIPKGTTLITNLSSVLKDEAVWEKPFRFHPEHFLDAQGHFVKPEAFLPFSAGRRACLGEPLARMELFLFFTSLLQHFSFSVPTGQPRPSHHGVFAFLVSPSPYELCAVPR",function category of the variant versus *1 and *3 controls,decrease of function
"*10: human CYP2D6 variant allele *10 (PV00435), SEQ ID NO: 6 (protein, UniProt P10635 1-497, looked up, variant P34S S486T) Cytochrome P450 2D6: MGLEALVPLAVIVAIFLLLVDLMHRRQRWAARYSPGPLPLPGLGNLLHVDFQNTPYCFDQLRRRFGDVFSLQLAWTPVVVLNGLAAVREALVTHGEDTADRPPVPITQILGFGPRSQGVFLARYGPAWREQRRFSVSTLRNLGLGKKSLEQWVTEEAACLCAAFANHSGRPFRPNGLLDKAVSNVIASLTCGRRFEYDDPRFLRLLDLAQEGLKEESGFLREVLNAVPVLLHIPALAGKVLRFQKAFLTQLDELLTEHRMTWDPAQPPRDLTEAFLAEMEKAKGNPESSFNDENLRIVVADLFSAGMVTTSTTLAWGLLLMILHPDVQRRVQQEIDDVIGQVRRPEMGDQAHMPYTTAVIHEVQRFGDIVPLGVTHMTSRDIEVQGFRIPKGTTLITNLSSVLKDEAVWEKPFRFHPEHFLDAQGHFVKPEAFLPFSAGRRACLGEPLARMELFLFFTSLLQHFSFSVPTGQPRPSHHGVFAFLVTPSPYELCAVPR",function category of the variant versus *1 and *3 controls,decrease of function
"*14: human CYP2D6 variant allele *14 (PV00439), SEQ ID NO: 7 (protein, UniProt P10635 1-497, looked up, variant P34S G169R R296C S486T) Cytochrome P450 2D6: MGLEALVPLAVIVAIFLLLVDLMHRRQRWAARYSPGPLPLPGLGNLLHVDFQNTPYCFDQLRRRFGDVFSLQLAWTPVVVLNGLAAVREALVTHGEDTADRPPVPITQILGFGPRSQGVFLARYGPAWREQRRFSVSTLRNLGLGKKSLEQWVTEEAACLCAAFANHSRRPFRPNGLLDKAVSNVIASLTCGRRFEYDDPRFLRLLDLAQEGLKEESGFLREVLNAVPVLLHIPALAGKVLRFQKAFLTQLDELLTEHRMTWDPAQPPRDLTEAFLAEMEKAKGNPESSFNDENLCIVVADLFSAGMVTTSTTLAWGLLLMILHPDVQRRVQQEIDDVIGQVRRPEMGDQAHMPYTTAVIHEVQRFGDIVPLGVTHMTSRDIEVQGFRIPKGTTLITNLSSVLKDEAVWEKPFRFHPEHFLDAQGHFVKPEAFLPFSAGRRACLGEPLARMELFLFFTSLLQHFSFSVPTGQPRPSHHGVFAFLVTPSPYELCAVPR",function category of the variant versus *1 and *3 controls,decrease of function
"*29: human CYP2D6 variant allele *29 (PV00453), SEQ ID NO: 8 (protein, UniProt P10635 1-497, looked up, variant V136I R296C V338M S486T) Cytochrome P450 2D6: MGLEALVPLAVIVAIFLLLVDLMHRRQRWAARYPPGPLPLPGLGNLLHVDFQNTPYCFDQLRRRFGDVFSLQLAWTPVVVLNGLAAVREALVTHGEDTADRPPVPITQILGFGPRSQGVFLARYGPAWREQRRFSISTLRNLGLGKKSLEQWVTEEAACLCAAFANHSGRPFRPNGLLDKAVSNVIASLTCGRRFEYDDPRFLRLLDLAQEGLKEESGFLREVLNAVPVLLHIPALAGKVLRFQKAFLTQLDELLTEHRMTWDPAQPPRDLTEAFLAEMEKAKGNPESSFNDENLCIVVADLFSAGMVTTSTTLAWGLLLMILHPDVQRRVQQEIDDMIGQVRRPEMGDQAHMPYTTAVIHEVQRFGDIVPLGVTHMTSRDIEVQGFRIPKGTTLITNLSSVLKDEAVWEKPFRFHPEHFLDAQGHFVKPEAFLPFSAGRRACLGEPLARMELFLFFTSLLQHFSFSVPTGQPRPSHHGVFAFLVTPSPYELCAVPR",function category of the variant versus *1 and *3 controls,decrease of function
